Positions of bridges follow the written chain, without caps; N, C: chain ends. Non-standard residues stand in square brackets, D forms with d. Residues, ends and D or L forms follow the SMILES beside them. *: point of attachment. DOTA = O=C(O)CN1CCN(CC(=O)O)CCN(CC(=O)*)CCN(CC(=O)O)CC1
What was measured:
in vitro = in vitro ADME; details: mouse, plasma
Protocol: Additionally, the integrity of [^67Ga]Ga-DOTA-WJL-63 (20 MBq/nmol) in mouse and human blood plasma (Rockland Immunochemicals, Inc. PA, USA and Blood donation SRK Aargau-Solothurn, Switzerland) was determined using thin layer chromatography (TLC). Reversed phase C-18 plates (TLC Silica gel 60 RP-18; Merck) were used as the stationary phase and a mixture of citrate buffer (pH 5.5; 0.1 M) and acetonitrile (7:3; v/v) as the mobile phase. Under these conditions, uncoordinated gallium-67 migrated with the front while the radiopeptide and potential larger fragments migrated to the center of the plate. […] The quantification of the signals was carried out using the OptiQuant software (version 5.0, Bright Instrument Co Ltd., PerkinElmer). The obtained chromatograms were analyzed by determination of the peak area of the radiolabeled peptide, the released gallium-67 as well as degradation products of unknown structure. The quantity of the intact product was expressed as the percentage of the sum of integrated peak areas of the entire chromatogram and set in relation to the value determined at the respective timepoints of the radiopeptide diluted in saline which was set as 100% to correct for TLC artefacts. The results were then expressed as average ± SD from n = 3 independent experiments.

[1] = format: physicochemical
Protocol: The distribution coefficient (logD value) of [^67Ga]Ga-DOTA-WJL-63 was determined using a shake-flask method as previously reported for DX600 radiopeptides ([Beyer et al., 2023]). The distribution coefficients were indicated as the average of n = 3 independent measurements ± standard deviation (SD), each performed with five replicates.

CC[C@H](C)[C@@H]1NC(=O)[C@H](CCC(N)=O)NC(=O)[C@H]([C@@H](C)O)NC(=O)[C@H](CO)NC(=O)[C@@H](Cc2ccc(O)cc2)NC(=O)CSC[C@@H](C(=O)NCC(=O)N[C@@H](CO)C(=O)NCC(=O)N[C@@H](CO)C(=O)NCC(=O)N[C@@H](CO)C(=O)N[C@@H](CCCCNC(=O)CN2CCN(CC(=O)O)CCN(CC(=O)O)CCN(CC(=O)O)CC2)C(N)=O)NC(=O)CNC(=O)[C@H](CCCNC(=N)N)NC(=O)[C@H](CO)NC(=O)[C@H](CC(=O)O)NC(=O)[C@H](CCCNC(=N)N)NC(=O)[C@H]([C@@H](C)O)NC(=O)[C@H](Cc2ccccc2)NC(=O)CNC(=O)[C@H](CCCNC(=N)N)NC(=O)[C@H](CO)NC1=O [[^67Ga]Ga-DOTA-WJL-63, metal not drawn] ({CH2CO}-[dY]STQISRGFTRDSRGCGSGSGSK(DOTA)-NH2; thioether N-16)
remaining at 1 h, 10 MBq/200 µL (in vitro): 91% | remaining at 3 h, 10 MBq/200 µL (in vitro): 69% | logD value [1]: − 4.4 ± 0.1

Reference: article PMC13142116, “Development and structure-guided characterization of a novel ACE2-binding macrocyclic peptide” (Journal of Structural Biology: X, 2026)
